Results taken from the supplement of paper PMC5998384.

Legend:
HeLa Kyoto [1] = assay: solubility change mitosis vs G1/S (difference of NP-40 vs SDS log2 ratios) (log2 ratio difference); higher = more soluble in mitosis
HeLa Kyoto [2] = assay: solubility in G1/S (NP-40 vs SDS abundance) (log2 ratio); higher = more soluble; details: cell cycle stage: G1/S
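Wherever solubility change mitosis vs G1/S (difference of NP-40 vs SDS log2 ratios) is given: synchronized HeLa Kyoto cells (double thymidine block for G1/S, nocodazole release for mitosis), protein amounts in NP-40 versus SDS lysates quantified by mass spectrometry, three biological replicates.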
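Wherever solubility in G1/S (NP-40 vs SDS abundance) is given: HeLa Kyoto cells arrested at G1/S by double thymidine block, proteins quantified by TMT10plex mass spectrometry in mild NP-40 versus SDS extracts, three biological replicates.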

Row | Sequence | solubility change mitosis (log2) (HeLa Kyoto [1]) | solubility in G1/S (log2) (HeLa Kyoto [2])
1 | MSAAGAGAGVEAGFSSEELLSLRFPLHRACRDGDLATLCSLLQQTPHAHLASEDSFYGWTPVHWAAHFGKLECLVQLVRAGATLNVSTTRYAQTPAHIAAFGGHPQCLVWLIQAGANINKPDCEGETPIHKAARSGSLECISALVANGAHVDLRNASGLTAADIAQTQGFQECAQFLLNLQNCHLNHFYNNGILNGGHQNVFPNHISVGTNRKRCLEDSEDFGVKKARTEAQSLDSAVPLTNGDTEDDADKMHVDREFAVVTDMKNSSSVSNTLTNGCVINGHLDFPSTTPLSGMESRNGQCLTGTNGISSGLAPGQPFPSSQGSLCISGTEEPEKTLRANPELCGSLHLNGSPSSCIASRPSWVEDIGDNLYYGHYHGFGDTAESIPELNSVVEHSKSVKVQERYDSAVLGTMHLHHGS [ANKRD10] | 0.112 | 0.0215
2 | MAAVAMTPNPVQTLQEEAVCAICLDYFTDPVSIGCGHNFCRVCVTQLWGGEDEEDRDELDREEEEEDGEEEEVEAVGAGAGWDTPMRDEDYEGDMEEEVEEEEEGVFWTSGMSRSSWDNMDYVWEEEDEEEDLDYYLGDMEEEDLRGEDEEDEEEVLEEVEEEDLDPVTPLPPPPAPRRCFTCPQCRKSFPRRSFRPNLQLANMVQVIRQMHPTPGRGSRVTDQGICPKHQEALKLFCEVDEEAICVVCRESRSHKQHSVVPLEEVVQEYKAKLQGHVEPLRKHLEAVQKMKAKEERRVTELKSQMKSELAAVASEFGRLTRFLAEEQAGLERRLREMHEAQLGRAGAAASRLAEQAAQLSRLLAEAQERSQQGGLRLLQDIKETFNRCEEVQLQPPEVWSPDPCQPHSHDFLTDAIVRKMSRMFCQAARVDLTLDPDTAHPALMLSPDRRGVRLAERRQEVADHPKRFSADCCVLGAQGFRSGRHYWEVEVGGRRGWAVGAARESTHHKEKVGPGGSSVGSGDASSSRHHHRRRRLHLPQQPLLQREVWCVGTNGKRYQAQSSTEQTLLSPSEKPRRFGVYLDYEAGRLGFYNAETLAHVHTFSAAFLGERVFPFFRVLSKGTRIKLCP [TRIM41] | 0.254 | -0.886
3 | MLPGVGVFGTSLTARVIIPLLKDEGFAVKALWGRTQEEAEELAKEMSVPFYTSRIDEVLLHQDVDLVCINLPPPLTRQIAVKTLGIGKNVICDRTATPLDAFRMTSAAHYYPKLMSIMGNVLRFLPAFVRMKQLIEEGYVGEPLVCEVQVHGGSLLGKKYNWSCDDLMGGGGLHSVGTYIIDLLTFLTGQKAVKVHGLLKTFVKQTDHIKGIRQITSDDFCTFQMVLEGGVCCTVTLNFNVPGEFKQDVTVVGSAGRLLAVGTDLYGQRNSAPEQELLVQDATPVSNSLLPEKAFSDIPSPYLRGTIKMMQAVRQAFQDQDDRRTWDGRPLTMAATFDDCLYALCVVDTIKRSSQTGEWQNIAIMTEEPELSPAYLISEAMRRSRMSLYC [GFOD1] | -0.244 | -0.0575
4 | MAASLWMGDLEPYMDENFISRAFATMGETVMSVKIIRNRLTGIPAGYCFVEFADLATAEKCLHKINGKPLPGATPAKRFKLNYATYGKQPDNSPEYSLFVGDLTPDVDDGMLYEFFVKVYPSCRGGKVVLDQTGVSKGYGFVKFTDELEQKRALTECQGAVGLGSKPVRLSVAIPKASRVKPVEYSQMYSYSYNQYYQQYQNYYAQWGYDQNTGSYSYSYPQYGYTQSTMQTYEEVGDDALEDPMPQLDVTEANKEFMEQSEELYDALMDCHWQPLDTVSSEIPAMM [TRNAU1AP] | -0.0623 | 0.0945
5 | MGKVLSKIFGNKEMRILMLGLDAAGKTTILYKLKLGQSVTTIPTVGFNVETVTYKNVKFNVWDVGGQDKIRPLWRHYYTGTQGLIFVVDCADRDRIDEARQELHRIINDREMRDAIILIFANKQDLPDAMKPHEIQEKLGLTRIRDRNWYVQPSCATSGDGLYEGLTWLTSNYKS [ARF6] | 0.0647 | 0.0719
6 | MARRSQSSSQGDNPLAPGYLPPHYKEYYRLAVDALAEGGSEAYSRFLATEGAPDFLCPEELEHVSRHLRPPQYVTREPPEGSLLDVDMDGSSGTYWPVNSDQAVPELDLGWPLTFGFQGTEVTTLVQPPPPDSPSIKDEARRMIRSAQQVVAVVMDMFTDVDLLSEVLEAAARRVPVYILLDEMNAQHFLDMADKCRVNLQHVDFLRVRTVAGPTYYCRTGKSFKGHVKEKFLLVDCAVVMSGSYSFMWSFEKIHRSLAHVFQGELVSSFDEEFRILFAQSEPLVPSAAALARMDAYALAPYAGAGPLVGVPGVGAPTPFSFPKRAHLLFPPPREEGLGFPSFLDPDRHFLSAFRREEPPRMPGGALEPHAGLRPLSRRLEAEAGPAGELAGARGFFQARHLEMDAFKRHSFATEGAGAVENFAAARQVSRQTFLSHGDDFRFQTSHFHRDQLYQQQYQWDPQLTPARPQGLFEKLRGGRAGFADPDDFTLGAGPRFPELGPDGHQRLDYVPSSASREVRHGSDPAFAPGPRGLEPSGAPRPNLTQRFPCQAAARPGPDPAPEAEPERRGGPEGRAGLRRWRLASYLSGCHGEDGGDDGLPAPMEAEAYEDDVLAPGGRAPAGDLLPSAFRVPAAFPTKVPVPGPGSGGNGPEREGPEEPGLAKQDSFRSRLNPLVQRSSRLRSSLIFSTSQAEGAAGAAAATEKVQLLHKEQTVSETLGPGGEAVRSAASTKVAELLEKYKGPARDPGGGAGAITVASHSKAVVSQAWREEVAAPGAVGGERRSLESCLLDLRDSFAQQLHQEAERQPGAASLTAAQLLDTLGRSGSDRLPSRFLSAQSHSTSPQGLDSPLPLEGSGAHQVLHNESKGSPTSAYPERKGSPTPGFSTRRGSPTTGFIEQKGSPTSAYPERRGSPVPPVPERRSSPVPPVPERRGSLTLTISGESPKAGPAEEGPSGPMEVLRKGSLRLRQLLSPKGERRMEDEGGFPVPQENGQPESPRRLSLGQGDSTEAATEERGPRARLSSATANALYSSNLRDDTKAILEQISAHGQKHRAVPAPSPGPTHNSPELGRPPAAGVLAPDMSDKDKCSAIFRSDSLGTQGRLSRTLPASAEERDRLLRRMESMRKEKRVYSRFEVFCKKEEASSPGAGEGPAEEGTRDSKVGKFVPKILGTFKSKK [FAM83H] | -0.0789 | -0.733
7 | MAASKKAVLGPLVGAVDQGTSSTRFLVFNSRTAELLSHHQVEIKQEFPREGWVEQDPKEILHSVYECIEKTCEKLGQLNIGISNIKAIGVSNQRETTVVWDKITGEPLYNAVVWLDLRTQSTVESLSKRIPGNNNFVKSKTGLPLSTYFSAVKLRWLLDNVRKVQKAVEEKRALFGTIDSWLIWSLTGGVNGGVHCTDVTNASRTMLFNIHSLEWDKQLCEFFGIPMEILPHVRSSSEIYGLMKAGALEGVPISGCLGDQSAALVGQMCFQIGQAKNTYGTGCFLLCNTGHKCVFSDHGLLTTVAYKLGRDKPVYYALEGSVAIAGAVIRWLRDNLGIIKTSEEIEKLAKEVGTSYGCYFVPAFSGLYAPYWEPSARGIICGLTQFTNKCHIAFAALEAVCFQTREILDAMNRDCGIPLSHLQVDGGMTSNKILMQLQADILYIPVVKPLMPETTALGAAMAAGAAEGVDVWSLEPEDLSAVTMERFEPQINAEESEIRYSTWKKAVMKSMGWVTTQSPEGGDPSVFCSLPLGFFIVSSMAMLIGARYISGIP [GK3P] | -0.0298 | -0.0732
8 | MEPIYPFARPQMNTRFPSSRMVPFHFPPSKCALWNPTPTGDFIYLHLSYYRNPKLVVTEKTIRLAYRHAKQNKKNSSCFLLGSLTADEDEEGVTLTVDRFDPGREVPECLEITPTASLPGDFLIPCKVHTQELCSREMIVHSVDDFSSALKALQCHICSKDSLDCGKLLSLRVHITSRESLDSVEFDLHWAAVTLANNFKCTPVKPIPIIPTALARNLSSNLNISQVQGTYKYGYLTMDETRKLLLLLESDPKVYSLPLVGIWLSGITHIYSPQVWACCLRYIFNSSVQERVFSESGNFIIVLYSMTHKEPEFYECFPCDGKIPDFRFQLLTSKETLHLFKNVEPPDKNPIRCELSAESQNAETEFFSKASKNFSIKRSSQKLSSGKMPIHDHDSGVEDEDFSPRPIPSPHPVSQKISKIQPSVPELSLVLDGNFIESNPLPTPLEMVNNENPPLINHLEHLKPLQPQLYDEKHSPEVEAGEPSLRGIPNQLNQDKPALLRHCKVRQPPAYKKGNPHTRNSIKPSSHNGPSHDIFEKLQTVSAGNVQNEEYPIRPSTLNSRQSSLAPQSQPHDFVFSPHNSGRPMELQIPTPPLPSYCSTNVCRCCQHHSHIQYSPLNSWQGANTVGSIQDVQSEALQKHSLFHPSGCPALYCNAFCSSSSPIALRPQGDMGSCSPHSNIEPSPVARPPSHMDLCNPQPCTVCMHTPKTESDNGMMGLSPDAYRFLTEQDRQLRLLQAQIQRLLEAQSLMPCSPKTTAVEDTVQAGRQMELVSVEAQSSPGLHMRKGVSIAVSTGASLFWNAAGEDQEPDSQMKQDDTKISSEDMNFSVDINNEVTSLPGSASSLKAVDIPSFEESNIAVEEEFNQPLSVSNSSLVVRKEPDVPVFFPSGQLAESVSMCLQTGPTGGASNNSETSEEPKIEHVMQPLLHQPSDNQKIYQDLLGQVNHLLNSSSKETEQPSTKAVIISHECTRTQNVYHTKKKTHHSRLVDKDCVLNATLKQLRSLGVKIDSPTKVKKNAHNVDHASVLACISPEAVISGLNCMSFANVGMSGLSPNGVDLSMEANAIALKYLNENQLSQLSVTRSNQNNCDPFSLLHINTDRSTVGLSLISPNNMSFATKKYMKRYGLLQSSDNSEDEEEPPDNADSKSEYLLNQNLRSIPEQLGGQKEPSKNDHEIINCSNCESVGTNADTPVLRNITNEVLQTKAKQQLTEKPAFLVKNLKPSPAVNLRTGKAEFTQHPEKENEGDITIFPESLQPSETLKQMNSMNSVGTFLDVKRLRQLPKLF [STIL] | 0.239 | -0.362
9 | MATLWGGLLRLGSLLSLSCLALSVLLLAQLSDAAKNFEDVRCKCICPPYKENSGHIYNKNISQKDCDCLHVVEPMPVRGPDVEAYCLRCECKYEERSSVTIKVTIIIYLSILGLLLLYMVYLTLVEPILKRRLFGHAQLIQSDDDIGDHQPFANAHDVLARSRSRANVLNKVEYAQQRWKLQVQEQRKSVFDRHVVLS [TMEM9B] | -0.12 | -0.235
10 | MRPWTGSWRWIMLILFAWGTLLFYIGGHLVRDNDHPDHSSRELSKILAKLERLKQQNEDLRRMAESLRIPEGPIDQGPAIGRVRVLEEQLVKAKEQIENYKKQTRNGLGKDHEILRRRIENGAKELWFFLQSELKKLKNLEGNELQRHADEFLLDLGHHERSIMTDLYYLSQTDGAGDWREKEAKDLTELVQRRITYLQNPKDCSKAKKLVCNINKGCGYGCQLHHVVYCFMIAYGTQRTLILESQNWRYATGGWETVFRPVSETCTDRSGISTGHWSGEVKDKNVQVVELPIVDSLHPRPPYLPLAVPEDLADRLVRVHGDPAVWWVSQFVKYLIRPQPWLEKEIEEATKKLGFKHPVIGVHVRRTDKVGTEAAFHPIEEYMVHVEEHFQLLARRMQVDKKRVYLATDDPSLLKEAKTKYPNYEFISDNSISWSAGLHNRYTENSLRGVILDIHFLSQADFLVCTFSSQVCRVAYEIMQTLHPDASANFHSLDDIYYFGGQNAHNQIAIYAHQPRTADEIPMEPGDIIGVAGNHWDGYSKGVNRKLGRTGLYPSYKVREKIETVKYPTYPEAEK [FUT8] | -0.0307 | -0.188
11 | MAGAGRGAAVSRVQAGPGSPRRARGRQQVQPLGKQRPAPWPGLRSKEKKKVNCKPKNQDEQEIPFRLREIMRSRQEMKNPISNKKRKKAAQVTFRKTLEKEAKGEEPDIAVPKFKQRKGESDGAYIHRMQQEAQHVLFLSKNQAIRQPEVQAAPKEKSEQKKAKKAFQKRRLDKVRRKKEEKAADRLEQELLRDTVKFGEVVLQPPELTARPQRSVSKDQPGRRSQMLRMLLSPGGVSQPLTASLARQRIVEEERERAVQAYRALKQRQQQLHGERPHLTSRKKPEPQL [CCDC137] | 0.83 | -1.04
